Results taken from US20210170043A1, “DC-SIGN ANTIBODY CONJUGATES COMPRISING STING AGONISTS” (NOVARTIS AG, priority 2018, published 2021).

B1: 958N05 S93A: optimization of sequences by removal of post-translational modifications, non-preferred sites; substitutions made by site directed mutagenesis (antibody)
heavy: QVTLRESGPALVKPTQTLTLTCTFSGFSLSTSGISVSWIRQPPGKALEWLALIDWDDDKYYSTSLKTRLTISKDTSKNQVVLTMTNMDPVDTATYYCARTPSGSYGRYFDLWGRGTLVTVSSASTKGPSVFPLAPSSKSTSGGTAALGCLVKDYFPCPVTVSWNSGALTSGVHTFPAVLQSSGLYSLSSVVTVPSSSLGTQTYICNVNHKPSNTKVDKRVEPKSCDKTHTCPPCPAPELLGGPSVFLFPPKPKDTLMISRTPEVTCVVVAVSHEDPEVKFNWYVDGVEVHNAKTKPREEQYNSTYRVVSVLTVLHQDWLNGKEYKCKVSNKALAAPIEKTISKAKGQPREPQVYTLPPSREEMTKNQVSLTCLVKGFYPCDIAVEWESNGQPENNYKTTPPVLDSDGSFFLYSKLTVDKSRWQQGNVFSCSVMHEALHNHYTQKSLSLSPGK
light: DIQLTQSPSTLSASVGDRVTITCRASQSISNWLAWYQQKPGKAPKLLIYKASSLESGVPSRFTGSGSGTEFTLTISSLQPDDFATYYCQQYNAYWTFGQGTKVEIKRTVAAPSVFIFPPSDEQLKSGTASVVCLLNNFYPREAKVQWKVDNALQSGNSQESVTEQDSKDSTYSLSSTLTLSKADYEKHKVYACEVTHQGLSSPVTKSFNRGEC
B2: 960K03 N92Q: optimization of sequences by removal of post-translational modifications, non-preferred sites; substitutions made by site directed mutagenesis (antibody)
heavy: QVTLRESGPALVKPTQTLTLTCTFSGFSLSTGGMSVSWIRQPPGKALEWLALIDWDDDKYYSTSLKTRLTISKDTSKNQLVLTMTNMDPVDTATYYCARAHSGSYFDFWGQGTLVTVSSASTKGPSVFPLAPSSKSTSGGTAALGCLVKDYFPCPVTVSWNSGALTSGVHTFPAVLQSSGLYSLSSVVTVPSSSLGTQTYICNVNHKPSNTKVDKRVEPKSCDKTHTCPPCPAPELLGGPSVFLFPPKPKDTLMISRTPEVTCVVVAVSHEDPEVKFNWYVDGVEVHNAKTKPREEQYNSTYRVVSVLTVLHQDWLNGKEYKCKVSNKALAAPIEKTISKAKGQPREPQVYTLPPSREEMTKNQVSLTCLVKGFYPCDIAVEWESNGQPENNYKTTPPVLDSDGSFFLYSKLTVDKSRWQQGNVFSCSVMHEALHNHYTQKSLSLSPGK
light: DIQMTQSPSTLSASVGDRVTITCRASQRISNWLAWYQQKPGKAPKLLIYKASSLESGVPSRFSGSGSGTEFTLTISSLQPDDFATYYCQQFQSYWTFGQGTKVEIKRTVAAPSVFIFPPSDEQLKSGTASVVCLLNNFYPREAKVQWKVDNALQSGNSQESVTEQDSKDSTYSLSSTLTLSKADYEKHKVYACEVTHQGLSSPVTKSFNRGEC
B3: 2B2 (DAPA) DAR2 C1 (conjugate)
VH: QVQLVQSGAEVKKPGASVKVSCKASGYTFTNYGINWVRQAPGQRLEWMGYIYIGNDYTEYNERFKGRVTITSDTSASTAYMELSSLRSEDTAVYYCARLYYGSSLYSYAMDYWGQGTTVTVSS
VL: DIVMTQSPLSLPVTPGEPASISCRSSKSLLHSSGNTYLYWFLQKPGQSPQLLISRMSNLASGVPDRFSGSGSGTDFTLKISRVEAEDVGVYYCMQHLEYPYTFGGGTKVEIK

Experiments:
[1] = target: T1, human L-SIGN (Homo sapiens, UniProt Q9H2X3); assay: FACS binding to K562 cells expressing human L-SIGN (selectivity); conditions: FACS MFI
T1 construct: expressed in transfected cells; host or cells: K562, retroviral transduction
T1 sequence (Q9H2X3 1-399): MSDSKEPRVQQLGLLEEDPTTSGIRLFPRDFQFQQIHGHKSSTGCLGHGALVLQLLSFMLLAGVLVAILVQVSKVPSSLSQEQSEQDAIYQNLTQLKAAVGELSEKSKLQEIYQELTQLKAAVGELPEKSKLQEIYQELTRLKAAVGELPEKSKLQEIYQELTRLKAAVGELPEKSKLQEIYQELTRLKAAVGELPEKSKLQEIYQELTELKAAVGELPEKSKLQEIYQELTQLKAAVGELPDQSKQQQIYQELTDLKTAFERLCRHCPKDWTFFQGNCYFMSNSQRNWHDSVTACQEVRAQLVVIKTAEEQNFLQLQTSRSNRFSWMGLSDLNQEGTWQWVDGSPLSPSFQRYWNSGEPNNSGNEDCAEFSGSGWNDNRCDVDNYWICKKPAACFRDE
Protocol: (§1) The affinity of various antibodies and ADCs to DC-SIGN and its species orthologues was determined using FACS. Purified IgGs were titrated to determine EC50 values for binding to cell surface expressed DC-SIGN.
(§2) For this purpose, human DC-SIGN expressing or cynomolgus monkey DC-SIGN expressing stable CHO cell lines or K562 expressing DC-SIGN or K562 expressing L-SIGN cell lines were checked for density and viability using VICELL (Beckman Coulter), and washed once with 4° C. PBS. Cells were stained with DAPI (0.5 ug/mL) diluted in PBS for 30 min on ice. Cells were diluted into 4° C. FACS buffer (PBS, 10 mM EDTA, 2% FBS). 125 μl of cells were seeded (10,000 cells/well) into 96-well v-bottom plates (Nunc cat#442587) and centrifuged for 4 min at 1500 rpm at 4° C. Supernatant was removed. Cells were incubated with a serial dilution of each anti-DC-SIGN antibody in FACS buffer at concentrations ranging across several logs with a top concentration no higher than 50 μg/mL for 60 minutes at 4° C. Following incubation, cells were spun down (1500 rpm, 4 min, 4° C.) and washed two times with FACS buffer. A fluorophore-conjugated anti-hFc gamma-AF-647 (Southern Biotechnology) detection antibody was added at 1:400 and samples were incubated for 1 h on ice in the dark. Following incubation, FACS buffer was added, and the cells were spun down (1500 rpm, 4 min, 4° C.) and washed two times with FACS buffer. After the final wash, cells were resuspended in Fixative Buffer (Biolegend, 420801) and 90 μl of FACS buffer followed by readout on the flow cytometry machine (BD LSRFortessa Cell Analyzer; Cat #647177). Geometric Mean fluorescence intensity (MFI) of live, single cells was calculated in Flowjo 10.4.2 and exported into Graphpad Prism7 for EC50 determination.
Selectivity was assessed by measuring apparent binding affinities to isogenic cell pairs engineered to overexpress DC-SIGN as well as cell lines expressing DC-SIGN paralog L-SIGN.

[2] = tested on: cynomolgus monkey DC-SIGN; assay: FACS binding to CHO cells stably expressing cynomolgus monkey DC-SIGN; conditions: FACS MFI, average
Protocol: as §1, §2
In a similar experiment the antibodies were tested for cross-reactivity using engineered isogenic matched cell line.

[3] = target: T2, human DC-SIGN (Homo sapiens, UniProt Q9NNX6); assay: FACS binding to CHO cells stably expressing human DC-SIGN; conditions: FACS MFI, average
T2 construct: expressed in transfected cells
T2 sequence (Q9NNX6 1-404): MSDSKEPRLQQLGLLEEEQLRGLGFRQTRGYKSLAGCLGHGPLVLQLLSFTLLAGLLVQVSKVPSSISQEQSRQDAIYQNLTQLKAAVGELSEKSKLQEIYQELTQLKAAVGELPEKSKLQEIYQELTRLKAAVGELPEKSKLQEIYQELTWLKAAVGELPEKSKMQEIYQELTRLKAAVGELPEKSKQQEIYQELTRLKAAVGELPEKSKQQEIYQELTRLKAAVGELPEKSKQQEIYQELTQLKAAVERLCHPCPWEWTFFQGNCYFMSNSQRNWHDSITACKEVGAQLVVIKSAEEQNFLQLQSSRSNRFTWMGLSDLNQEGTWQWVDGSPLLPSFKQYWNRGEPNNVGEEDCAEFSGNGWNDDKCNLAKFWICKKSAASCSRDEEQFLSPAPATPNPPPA
Protocol: as §1, §2

[4] = target: T2, human DC-SIGN; assay: FACS binding to K562 cells expressing human DC-SIGN; conditions: FACS MFI
Protocol: as §1, §2

[5] = tested on: transgenic mice expressing human DC-SIGN gene (Tg+); assay: Plasma cytokine production in transgenic mice expressing human DC-SIGN (ELISA / MesoScaleDiscovery); type: in vivo, mouse
Protocol: FIGS. 5A-5E show exemplary data on DC-SIGN immunoconjugates inducing cytokine production in Tg+ mice. […] Plasma levels were analyzed by ELISA (IP-10 and IFNβ) or MesoScaleDiscovery Multiplex analysis (all other analytes). **** denotes p value of <0.0001 using an ANOVA with Tukey's test compared to Tg-2B2 hlgG1 DAPA C1 group.
Mice were bled 6 hours after dosing to collect plasma for analysis of circulating cytokine levels.

[6] = tested on: CD11c+ dendritic cells of Tg+ mice; assay: Dendritic cell activation in DC-SIGN Tg+ mice (spleen, flow cytometry); type: in vivo, mouse
Protocol: Spleens were harvested 24 hours post dose and analyzed by flow cytometry to look at CD11c+ dendritic cells.

Chain of cynomolgus monkey DC-SIGN (as listed by the source): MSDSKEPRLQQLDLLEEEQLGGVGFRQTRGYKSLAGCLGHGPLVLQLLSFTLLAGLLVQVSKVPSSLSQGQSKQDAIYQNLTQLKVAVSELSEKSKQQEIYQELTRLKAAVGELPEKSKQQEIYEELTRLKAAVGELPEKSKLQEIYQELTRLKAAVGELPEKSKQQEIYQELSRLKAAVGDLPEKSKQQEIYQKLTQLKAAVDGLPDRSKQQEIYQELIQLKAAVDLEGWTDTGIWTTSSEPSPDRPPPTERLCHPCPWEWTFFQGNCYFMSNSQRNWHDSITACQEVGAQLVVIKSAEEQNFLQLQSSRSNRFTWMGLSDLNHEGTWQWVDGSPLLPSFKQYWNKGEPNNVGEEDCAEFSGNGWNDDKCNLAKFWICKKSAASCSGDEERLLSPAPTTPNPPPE

Molecule	human L-SIGN K562 EC50 [1] [µg/mL]	cyno DC-SIGN CHO EC50 (ug/mL) ave. [2] [µg/mL]	human DC-SIGN CHO EC50 (ug/mL) ave. [3] [µg/mL]	human DC-SIGN K562 EC50 [4] [µg/mL]	circulating plasma IL-12p70 [5]	circulating plasma IP-10 [5]	CD86 upregulation on dendritic cells (DC activation) [6]
B1	>10	0.16	0.13	0.060	–	–	–
B2	>10	0.04	0.08	0.021	–	–	–
B3	–	–	–	–	induced	induced	induced DC activation
